Literature values, collected in patent publication US20230303640A1, “EXENDIN-4 PEPTIDE ANALOGS” (TXP Pharma AG, priority 2020, published 2023).

Molecular target: T1, human GLP-1 receptor (Homo sapiens, UniProt P43220)
T1 construct: expressed in transfected cells; host or cells: CHO-K1
Conditions: FIG. 3; data included and detailed in PCT/IB2015/000553 (WO/2015/162485)

T1 sequence (P43220 24-463): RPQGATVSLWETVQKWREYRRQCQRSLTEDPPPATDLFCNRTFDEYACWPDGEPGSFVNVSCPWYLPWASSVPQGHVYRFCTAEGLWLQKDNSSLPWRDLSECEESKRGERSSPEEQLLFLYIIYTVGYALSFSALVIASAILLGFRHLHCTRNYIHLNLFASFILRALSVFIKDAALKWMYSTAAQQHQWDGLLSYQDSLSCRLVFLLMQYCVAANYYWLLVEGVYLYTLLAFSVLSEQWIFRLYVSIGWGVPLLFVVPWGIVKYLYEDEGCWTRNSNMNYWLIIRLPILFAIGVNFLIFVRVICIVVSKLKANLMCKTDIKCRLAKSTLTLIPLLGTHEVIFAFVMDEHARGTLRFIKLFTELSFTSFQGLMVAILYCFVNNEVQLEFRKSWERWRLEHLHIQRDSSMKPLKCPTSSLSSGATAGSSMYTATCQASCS

## Ac-His-Gly-Glu-Gly-Thr-Phe-Thr-Ser-Asp-Val-Ser-Ser-Tyr-Leu-Glu-Gly-Gln-Ala-Ala-Lys-Glu-Phe-Ile-Ala-Trp-Leu-Val-Lys-Gly-Arg-Gly-(Lys-Lys-Ac)Lys-NH2 (HGEGTFTSDVSSYLEGQAAKEFIAWLVKGRG; N-acetyl; C-terminal (Lys-Lys-Ac)Lys amide; printed: His-Gly-Glu-Gly-Thr-Phe-Thr-Ser-Asp-Val-Ser-Ser-Tyr-Leu-Glu-Gly-Gln-Ala-Ala-Lys-Glu-Phe-Ile-Ala-Trp-Leu-Val-Lys-Gly-Arg-Gly-) [Analogue 3, GLP-1 analogue with C-terminal BAP, from WO/2015/162485]
  EC50: 0.04 nM
